This is an account of results in the supplement of paper PMC10567573.

First the molecules themselves.
B1: C2CD2L (parent)
chain: LTLKVLRSSSCGDTELLGQATLPV
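Note: lentivirally expressed fusions sorted by FACS into six bins by GFP to DsRed ratio, PSI derived from sequencing read proportions per bin multiplied by bin number.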

This data set covers variants of B1. Briefly: protein stability index of a GFP-peptide fusion (GPS, HEK-293T) (PSI 1-6); higher = more stable. The conditions noted are these: c terminus: a fixed tail appended.
Consider LTLKVLRSSSCVDTELLGQATLPV [G12V], for which the protein stability index was determined as 1.99.

Consider LTLKVLRSSSCWDTELLGQATLPV [G12W], for which the protein stability index is 3.06.

Consider LTLKVLRSSSCYDTELLGQATLPV [G12Y], for which the protein stability index is 1.42.

As for LTLKVLRSSSCSDTELLGQATLPV [G12S], the protein stability index was 1.92.

On to LTLKVLRSSSCTDTELLGQATLPV [G12T], for which the protein stability index stood at 1.82.

Regarding LTLKVLRSSSCRDTELLGQATLPV [G12R], the protein stability index amounted to 2.71.

Regarding LTLKVLRSSSCGDTELLGCATLPV [Q19C], the protein stability index was 4.52.

As for LTLKVLRSSSCGDTELLGFATLPV [Q19F], the protein stability index was 3.05.

Turning to LTLKVLRSSSCGDTELLGSATLPV [Q19S], the protein stability index stood at 2.79.

For LTLKVLRSSSCGDTELLGKATLPV [Q19K], the protein stability index turned out to be 2.78.

As for LTLKVLRSSSCGDTELLGIATLPV [Q19I], the protein stability index was 4.42.

LTLKVLRSSSCGDTELLGYATLPV [Q19Y]: the protein stability index stood at 3.56.

Take LTLKVLRSSSCGDTELLGTATLPV [Q19T]: the protein stability index turned out to be 1.59.

Turning to LTLKVLRSSSCGDTELLGDATLPV [Q19D], the protein stability index turned out to be 1.61.

For LTLKVLRSSSCGDTELLGGATLPV [Q19G], the protein stability index is 1.91.

Turning to LTLKVLRSSSCGDTELLGNATLPV [Q19N], the protein stability index came out at 3.21.

As for LTLKVLRSSSCGDTELLGHATLPV [Q19H], the protein stability index came out at 2.94.

Regarding LTLKVLRSSSCGDTELLGEATLPV [Q19E], the protein stability index was determined as 2.86.

In the case of LTLKVLRSSSCGDTELLGWATLPV [Q19W], the protein stability index came to 3.5.

For LTLKVLRSSSCGDTELLGPATLPV [Q19P], the protein stability index is 2.06.

For the variant LTLKVLRSSSCGDTELLGVATLPV [Q19V], the protein stability index stood at 1.43.

As for LTLKVLRSSSCGDTELLGMATLPV [Q19M], the protein stability index was determined as 3.83.

For LTLKVLRSSSCGDTELLFQATLPV [G18F], the protein stability index stood at 2.89.

Regarding LTLKVLRSSSCGDTELLPQATLPV [G18P], the protein stability index came to 2.11.

For the variant LTLKVLRSSSCGDTELLKQATLPV [G18K], the protein stability index came out at 1.71.

For the variant LTLKVLRSSSCGDTELLRQATLPV [G18R], the protein stability index amounted to 2.06.

In the case of LTLKVLRSSSCGDTELLAQATLPV [G18A], the protein stability index stood at 1.97.

For LTLKVLRSSSCGDTELLDQATLPV [G18D], the protein stability index came to 2.28.

As for LTLKVLRSSSCGDTELLEQATLPV [G18E], the protein stability index was determined as 2.26.

LTLKVLRSSSCGDTELLHQATLPV [G18H]: the protein stability index worked out at 1.43.

LTLKVLRSSSCGDTELLLQATLPV [G18L]: the protein stability index was found to be 3.01.

For the variant LTLKVLRSSSCGDTELLQQATLPV [G18Q], the protein stability index worked out at 1.78.

Turning to LTLKVLRSSSCGDTELLCQATLPV [G18C], the protein stability index was found to be 2.07.

Regarding LTLKVLRSSSCGDTELLVQATLPV [G18V], the protein stability index is 2.88.

Take LTLKVLRSSSCGDTELLYQATLPV [G18Y]: the protein stability index worked out at 1.77.

Consider LTLKVLRSSSCGDTELLMQATLPV [G18M], for which the protein stability index came to 2.32.

On to LTLKVLRSSSCGDTELLSQATLPV [G18S], for which the protein stability index was determined as 1.97.

On to LTLKVLRSSSCGDTELLTQATLPV [G18T], for which the protein stability index turned out to be 1.18.

Regarding LTLKVLRSSSCGDTELLNQATLPV [G18N], the protein stability index was 2.11.

Turning to LTLKVLRSSSCGDRELLGQATLPV [T14R], the protein stability index is 2.06.

For the variant LTLKVLRSSSCGDSELLGQATLPV [T14S], the protein stability index is 1.8.

As for LTLKVLRSSSCGDHELLGQATLPV [T14H], the protein stability index came to 2.47.

Consider LTLKVLRSSSCGDDELLGQATLPV [T14D], for which the protein stability index amounted to 2.2.

As to LTLKVLRSSSCGDKELLGQATLPV [T14K], the protein stability index was 1.04.

With LTLKVLRSSSCGDEELLGQATLPV [T14E], the protein stability index was found to be 2.58.

Take LTLKVLRSSSCGDNELLGQATLPV [T14N]: the protein stability index came out at 1.91.

Regarding LTLKVLRSSSCGDQELLGQATLPV [T14Q], the protein stability index stood at 1.95.

Consider LTLKVLRSSSCGDGELLGQATLPV [T14G], for which the protein stability index is 3.33.

Regarding LTLKVLRSSSCGDMELLGQATLPV [T14M], the protein stability index turned out to be 2.03.

Turning to LTLKVLRSSSCGDAELLGQATLPV [T14A], the protein stability index came out at 3.11.

On to LTLKVLRSSSCGDPELLGQATLPV [T14P], for which the protein stability index was 2.74.

As for LTLKVLRSSSCGDCELLGQATLPV [T14C], the protein stability index worked out at 1.79.

With LTLKVLRSSSCGDYELLGQATLPV [T14Y], the protein stability index came to 3.11.

For LTLKVLRSSSCGWTELLGQATLPV [D13W], the protein stability index is 3.58.

As to LTLKVLRSSSCGNTELLGQATLPV [D13N], the protein stability index was 2.85.

Consider LTLKVLRSSSCGGTELLGQATLPV [D13G], for which the protein stability index worked out at 4.31.

With LTLKVLRSSSCGRTELLGQATLPV [D13R], the protein stability index amounted to 1.47.

As to LTLKVLRSSSCGFTELLGQATLPV [D13F], the protein stability index worked out at 3.62.

As for LTLKVLRSSSCGYTELLGQATLPV [D13Y], the protein stability index stood at 2.16.

Take LTLKVLRSSSCGSTELLGQATLPV [D13S]: the protein stability index stood at 2.38.

For the variant LTLKVLRSSSCGITELLGQATLPV [D13I], the protein stability index was determined as 3.63.

On to LTLKVLRSSSCGCTELLGQATLPV [D13C], for which the protein stability index turned out to be 3.28.

On to LTLKVLRSSSCGQTELLGQATLPV [D13Q], for which the protein stability index was determined as 2.24.

For LTLKVLRSSSCGTTELLGQATLPV [D13T], the protein stability index came out at 3.72.

Turning to LTLKVLRSSSCGPTELLGQATLPV [D13P], the protein stability index was 2.02.

LTLKVLRSSSCGDTELAGQATLPV [L17A]: the protein stability index was found to be 2.08.

As for LTLKVLRSSSCGDTELPGQATLPV [L17P], the protein stability index was 2.15.

With LTLKVLRSSSCGDTELHGQATLPV [L17H], the protein stability index came out at 1.24.

LTLKVLRSSSCGDTELRGQATLPV [L17R]: the protein stability index turned out to be 1.35.

Take LTLKVLRSSSCGDTELDGQATLPV [L17D]: the protein stability index worked out at 2.89.

Regarding LTLKVLRSSSCGDTELCGQATLPV [L17C], the protein stability index amounted to 2.18.

Regarding LTLKVLRSSSCGDTELFGQATLPV [L17F], the protein stability index was determined as 2.92.

On to LTLKVLRSSSCGDTELVGQATLPV [L17V], for which the protein stability index amounted to 2.44.

Take LTLKVLRSSSCGDTELWGQATLPV [L17W]: the protein stability index was found to be 2.04.

For the variant LTLKVLRSSSCGDTELEGQATLPV [L17E], the protein stability index was found to be 2.7.

Regarding LTLKVLRSSSCGDTELQGQATLPV [L17Q], the protein stability index was found to be 2.1.

For LTLKVLRSSSCGDTELIGQATLPV [L17I], the protein stability index came out at 2.4.

On to LTLKVLRSSSCGDTELSGQATLPV [L17S], for which the protein stability index was found to be 1.28.

Turning to LTLKVLRSSSCGDTELKGQATLPV [L17K], the protein stability index turned out to be 2.05.

Consider LTLKVLRSSSCGDTELNGQATLPV [L17N], for which the protein stability index is 3.12.

On to LTLKVLRSSSCGDTELGGQATLPV [L17G], for which the protein stability index came out at 1.86.

On to LTLKVLRSSSCGDTELMGQATLPV [L17M], for which the protein stability index is 1.11.

On to LTLKVLRSSSCGDTELYGQATLPV [L17Y], for which the protein stability index came to 1.57.

Take LTLKVLRSSSCGDTELTGQATLPV [L17T]: the protein stability index amounted to 1.92.

LTLKVLRSSSCGDTEFLGQATLPV [L16F]: the protein stability index was 2.34.

LTLKVLRSSSCGDTETLGQATLPV [L16T]: the protein stability index was 2.01.

In the case of LTLKVLRSSSCGDTEKLGQATLPV [L16K], the protein stability index worked out at 1.9.

Turning to LTLKVLRSSSCGDTEDLGQATLPV [L16D], the protein stability index turned out to be 2.69.

As for LTLKVLRSSSCGDTESLGQATLPV [L16S], the protein stability index was 1.72.

LTLKVLRSSSCGDTEPLGQATLPV [L16P]: the protein stability index was 1.97.

For LTLKVLRSSSCGDTEMLGQATLPV [L16M], the protein stability index is 1.86.

Consider LTLKVLRSSSCGDTEHLGQATLPV [L16H], for which the protein stability index was determined as 1.43.

LTLKVLRSSSCGDTEYLGQATLPV [L16Y]: the protein stability index turned out to be 1.37.

As to LTLKVLRSSSCGDTEQLGQATLPV [L16Q], the protein stability index was found to be 1.78.
